Data on five molecules can be found in US20210032299A1 (Eli Lilly, published 2021).

Starred links: 1 amine or outer side, 2 acyl side, 3 side chain; linkers in the order of their positions; H or OH if unused. Non-standard residues stand in square brackets, D forms with d. Groups on a side chain read outwards from the residue. No end group written: not given here. *: point of attachment. C20 diacid = O=C(O)CCCCCCCCCCCCCCCCCCC(=O)*; γGlu = O=C(O)[C@H](CCC(=O)[*:2])N[*:1]; 4Pal = N[C@@H](Cc1ccncc1)C(=O)O; αMeL = CC(C)C[C@](C)(N)C(=O)O; Orn = NCCC[C@H](N)C(=O)O; AEEA = NCCOCCOCC(=O)O; Aib = CC(C)(N)C(=O)O Where only a bound is given, the exact number is not on record here.

Holding throughout (assay): cell-based or functional assay
The target of assay [1] is T1, human glucose-dependent insulinotropic peptide receptor (human, UniProt P48546 22-466).
T1 sequence (looked up): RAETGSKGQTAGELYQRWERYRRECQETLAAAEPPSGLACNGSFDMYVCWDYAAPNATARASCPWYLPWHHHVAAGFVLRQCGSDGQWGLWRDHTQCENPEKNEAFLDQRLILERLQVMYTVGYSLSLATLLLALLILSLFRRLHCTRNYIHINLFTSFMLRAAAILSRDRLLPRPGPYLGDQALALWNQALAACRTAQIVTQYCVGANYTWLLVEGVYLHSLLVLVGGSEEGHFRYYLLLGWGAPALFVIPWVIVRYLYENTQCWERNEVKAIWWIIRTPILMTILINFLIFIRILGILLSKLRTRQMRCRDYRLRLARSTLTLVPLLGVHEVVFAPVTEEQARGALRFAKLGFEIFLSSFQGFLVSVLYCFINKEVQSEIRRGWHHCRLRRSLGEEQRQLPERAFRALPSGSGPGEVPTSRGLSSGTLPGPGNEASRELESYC

Another assay concerns the target human GLP-1 receptor (human, UniProt P43220 24-463).
The next assay addresses human glucagon receptor (human, UniProt P47871 26-477).

Sequence of human glucagon receptor (P47871 26-477): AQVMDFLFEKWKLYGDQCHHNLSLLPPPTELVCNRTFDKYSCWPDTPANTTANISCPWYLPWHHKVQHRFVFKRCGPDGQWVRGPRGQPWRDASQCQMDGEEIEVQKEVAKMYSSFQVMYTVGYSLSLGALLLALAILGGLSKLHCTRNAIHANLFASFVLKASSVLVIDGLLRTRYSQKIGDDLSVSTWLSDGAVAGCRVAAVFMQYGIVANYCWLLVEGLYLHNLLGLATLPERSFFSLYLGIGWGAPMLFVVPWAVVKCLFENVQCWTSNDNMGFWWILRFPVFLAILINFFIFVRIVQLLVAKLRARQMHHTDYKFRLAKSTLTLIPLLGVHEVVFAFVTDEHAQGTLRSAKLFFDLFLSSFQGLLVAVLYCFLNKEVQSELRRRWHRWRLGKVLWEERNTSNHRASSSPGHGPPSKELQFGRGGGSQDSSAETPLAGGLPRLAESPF

B1: Example 81 (peptide)
peptide: Y[Aib]EGTFISDYSI[αMeL]LD[Orn]K([AEEA-AEEA-γGlu-C20 diacid])HQ[Aib]DFVE[4Pal]LLEQGPSSGAPPPS-NH2
modifications: N-terminus assumed
SMILES: CC[C@H](C)[C@H](NC(=O)[C@H](Cc1ccccc1)NC(=O)[C@@H](NC(=O)CNC(=O)[C@H](CCC(=O)O)NC(=O)C(C)(C)NC(=O)[C@@H](N)Cc1ccc(O)cc1)[C@@H](C)O)C(=O)N[C@@H](CO)C(=O)N[C@@H](CC(=O)O)C(=O)N[C@@H](Cc1ccc(O)cc1)C(=O)N[C@@H](CO)C(=O)N[C@H](C(=O)N[C@@](C)(CC(C)C)C(=O)N[C@@H](CC(C)C)C(=O)N[C@@H](CC(=O)O)C(=O)N[C@@H](CCCN)C(=O)N[C@@H](CCCCNC(=O)COCCOCCNC(=O)COCCOCCNC(=O)CC[C@H](NC(=O)CCCCCCCCCCCCCCCCCCC(=O)O)C(=O)O)C(=O)N[C@@H](Cc1c[nH]cn1)C(=O)N[C@@H](CCC(N)=O)C(=O)NC(C)(C)C(=O)N[C@@H](CC(=O)O)C(=O)N[C@@H](Cc1ccccc1)C(=O)N[C@H](C(=O)N[C@@H](CCC(=O)O)C(=O)N[C@@H](Cc1ccncc1)C(=O)N[C@@H](CC(C)C)C(=O)N[C@@H](CC(C)C)C(=O)N[C@@H](CCC(=O)O)C(=O)N[C@@H](CCC(N)=O)C(=O)NCC(=O)N1CCC[C@H]1C(=O)N[C@@H](CO)C(=O)N[C@@H](CO)C(=O)NCC(=O)N[C@@H](C)C(=O)N1CCC[C@H]1C(=O)N1CCC[C@H]1C(=O)N1CCC[C@H]1C(=O)N[C@@H](CO)C(N)=O)C(C)C)[C@@H](C)CC
On to B1, for which, in assay [1], the “hGIPR cAMP Rel EC50” value turned out to be 0.0282 nM. The “hGLP1R cAMP Rel EC50” value in the assay with human GLP-1 receptor was above 5000 nM. Moreover, in the assay with human glucagon receptor, the “hGcgR cAMP Rel EC50” value was above 5000 nM.

B2: Example 82 (peptide)
peptide: Y[Aib]EGTFISDYSI[αMeL]LD[Orn]K([AEEA-AEEA-γGlu-C20 diacid])HQ[Aib]DFVE[4Pal]LLEGGPSSGAPPPS-NH2
modifications: N-terminus assumed
SMILES: CC[C@H](C)[C@H](NC(=O)[C@H](Cc1ccccc1)NC(=O)[C@@H](NC(=O)CNC(=O)[C@H](CCC(=O)O)NC(=O)C(C)(C)NC(=O)[C@@H](N)Cc1ccc(O)cc1)[C@@H](C)O)C(=O)N[C@@H](CO)C(=O)N[C@@H](CC(=O)O)C(=O)N[C@@H](Cc1ccc(O)cc1)C(=O)N[C@@H](CO)C(=O)N[C@H](C(=O)N[C@@](C)(CC(C)C)C(=O)N[C@@H](CC(C)C)C(=O)N[C@@H](CC(=O)O)C(=O)N[C@@H](CCCN)C(=O)N[C@@H](CCCCNC(=O)COCCOCCNC(=O)COCCOCCNC(=O)CC[C@H](NC(=O)CCCCCCCCCCCCCCCCCCC(=O)O)C(=O)O)C(=O)N[C@@H](Cc1c[nH]cn1)C(=O)N[C@@H](CCC(N)=O)C(=O)NC(C)(C)C(=O)N[C@@H](CC(=O)O)C(=O)N[C@@H](Cc1ccccc1)C(=O)N[C@H](C(=O)N[C@@H](CCC(=O)O)C(=O)N[C@@H](Cc1ccncc1)C(=O)N[C@@H](CC(C)C)C(=O)N[C@@H](CC(C)C)C(=O)N[C@@H](CCC(=O)O)C(=O)NCC(=O)NCC(=O)N1CCC[C@H]1C(=O)N[C@@H](CO)C(=O)N[C@@H](CO)C(=O)NCC(=O)N[C@@H](C)C(=O)N1CCC[C@H]1C(=O)N1CCC[C@H]1C(=O)N1CCC[C@H]1C(=O)N[C@@H](CO)C(N)=O)C(C)C)[C@@H](C)CC
Consider B2, for which the “hGIPR cAMP Rel EC50” value in assay [1] worked out at 0.0391 nM. Besides, the “hGLP1R cAMP Rel EC50” value with human GLP-1 receptor was above 5000 nM. Further, in the assay with human glucagon receptor, the “hGcgR cAMP Rel EC50” value turned out to be 3790 nM.

B3: Example 80 (peptide)
peptide: Y[Aib]EGTFISDYSI[αMeL]LD[Orn]K([AEEA-AEEA-γGlu-C20 diacid])HQ[Aib]DFVE[4Pal]LLETGPSSGAPPPS-NH2
modifications: N-terminus assumed
SMILES: CC[C@H](C)[C@H](NC(=O)[C@H](Cc1ccccc1)NC(=O)[C@@H](NC(=O)CNC(=O)[C@H](CCC(=O)O)NC(=O)C(C)(C)NC(=O)[C@@H](N)Cc1ccc(O)cc1)[C@@H](C)O)C(=O)N[C@@H](CO)C(=O)N[C@@H](CC(=O)O)C(=O)N[C@@H](Cc1ccc(O)cc1)C(=O)N[C@@H](CO)C(=O)N[C@H](C(=O)N[C@@](C)(CC(C)C)C(=O)N[C@@H](CC(C)C)C(=O)N[C@@H](CC(=O)O)C(=O)N[C@@H](CCCN)C(=O)N[C@@H](CCCCNC(=O)COCCOCCNC(=O)COCCOCCNC(=O)CC[C@H](NC(=O)CCCCCCCCCCCCCCCCCCC(=O)O)C(=O)O)C(=O)N[C@@H](Cc1c[nH]cn1)C(=O)N[C@@H](CCC(N)=O)C(=O)NC(C)(C)C(=O)N[C@@H](CC(=O)O)C(=O)N[C@@H](Cc1ccccc1)C(=O)N[C@H](C(=O)N[C@@H](CCC(=O)O)C(=O)N[C@@H](Cc1ccncc1)C(=O)N[C@@H](CC(C)C)C(=O)N[C@@H](CC(C)C)C(=O)N[C@@H](CCC(=O)O)C(=O)N[C@H](C(=O)NCC(=O)N1CCC[C@H]1C(=O)N[C@@H](CO)C(=O)N[C@@H](CO)C(=O)NCC(=O)N[C@@H](C)C(=O)N1CCC[C@H]1C(=O)N1CCC[C@H]1C(=O)N1CCC[C@H]1C(=O)N[C@@H](CO)C(N)=O)[C@@H](C)O)C(C)C)[C@@H](C)CC
With B3, the “hGIPR cAMP Rel EC50” value in assay [1] is 0.0777 nM. Also, the “hGLP1R cAMP Rel EC50” value with human GLP-1 receptor was above 5000 nM. For the same molecule, the “hGcgR cAMP Rel EC50” value with human glucagon receptor is above 5000 nM.

B4: Example 79 (peptide)
peptide: Y[Aib]EGTFISDYSI[αMeL]LDKK([AEEA-AEEA-γGlu-C20 diacid])HQ[Aib]DFVE[4Pal]LLAQGPSSGAPPPS-NH2
modifications: N-terminus assumed
SMILES: CC[C@H](C)[C@H](NC(=O)[C@H](Cc1ccccc1)NC(=O)[C@@H](NC(=O)CNC(=O)[C@H](CCC(=O)O)NC(=O)C(C)(C)NC(=O)[C@@H](N)Cc1ccc(O)cc1)[C@@H](C)O)C(=O)N[C@@H](CO)C(=O)N[C@@H](CC(=O)O)C(=O)N[C@@H](Cc1ccc(O)cc1)C(=O)N[C@@H](CO)C(=O)N[C@H](C(=O)N[C@@](C)(CC(C)C)C(=O)N[C@@H](CC(C)C)C(=O)N[C@@H](CC(=O)O)C(=O)N[C@@H](CCCCN)C(=O)N[C@@H](CCCCNC(=O)COCCOCCNC(=O)COCCOCCNC(=O)CC[C@H](NC(=O)CCCCCCCCCCCCCCCCCCC(=O)O)C(=O)O)C(=O)N[C@@H](Cc1c[nH]cn1)C(=O)N[C@@H](CCC(N)=O)C(=O)NC(C)(C)C(=O)N[C@@H](CC(=O)O)C(=O)N[C@@H](Cc1ccccc1)C(=O)N[C@H](C(=O)N[C@@H](CCC(=O)O)C(=O)N[C@@H](Cc1ccncc1)C(=O)N[C@@H](CC(C)C)C(=O)N[C@@H](CC(C)C)C(=O)N[C@@H](C)C(=O)N[C@@H](CCC(N)=O)C(=O)NCC(=O)N1CCC[C@H]1C(=O)N[C@@H](CO)C(=O)N[C@@H](CO)C(=O)NCC(=O)N[C@@H](C)C(=O)N1CCC[C@H]1C(=O)N1CCC[C@H]1C(=O)N1CCC[C@H]1C(=O)N[C@@H](CO)C(N)=O)C(C)C)[C@@H](C)CC
Turning to B4, in assay [1], the “hGIPR cAMP Rel EC50” value was 0.0316 nM. Besides, the “hGLP1R cAMP Rel EC50” value with human GLP-1 receptor is above 5000 nM. In addition, in the assay with human glucagon receptor, the “hGcgR cAMP Rel EC50” value was above 5000 nM.

B5: Example 78 (peptide)
peptide: Y[Aib]EGTFISDYSI[αMeL]LDKK([AEEA-AEEA-γGlu-C20 diacid])HQ[Aib]DFVE[4Pal]LLAAGPSSGAPPPS-NH2
modifications: N-terminus assumed
SMILES: CC[C@H](C)[C@H](NC(=O)[C@H](Cc1ccccc1)NC(=O)[C@@H](NC(=O)CNC(=O)[C@H](CCC(=O)O)NC(=O)C(C)(C)NC(=O)[C@@H](N)Cc1ccc(O)cc1)[C@@H](C)O)C(=O)N[C@@H](CO)C(=O)N[C@@H](CC(=O)O)C(=O)N[C@@H](Cc1ccc(O)cc1)C(=O)N[C@@H](CO)C(=O)N[C@H](C(=O)N[C@@](C)(CC(C)C)C(=O)N[C@@H](CC(C)C)C(=O)N[C@@H](CC(=O)O)C(=O)N[C@@H](CCCCN)C(=O)N[C@@H](CCCCNC(=O)COCCOCCNC(=O)COCCOCCNC(=O)CC[C@H](NC(=O)CCCCCCCCCCCCCCCCCCC(=O)O)C(=O)O)C(=O)N[C@@H](Cc1c[nH]cn1)C(=O)N[C@@H](CCC(N)=O)C(=O)NC(C)(C)C(=O)N[C@@H](CC(=O)O)C(=O)N[C@@H](Cc1ccccc1)C(=O)N[C@H](C(=O)N[C@@H](CCC(=O)O)C(=O)N[C@@H](Cc1ccncc1)C(=O)N[C@@H](CC(C)C)C(=O)N[C@@H](CC(C)C)C(=O)N[C@@H](C)C(=O)N[C@@H](C)C(=O)NCC(=O)N1CCC[C@H]1C(=O)N[C@@H](CO)C(=O)N[C@@H](CO)C(=O)NCC(=O)N[C@@H](C)C(=O)N1CCC[C@H]1C(=O)N1CCC[C@H]1C(=O)N1CCC[C@H]1C(=O)N[C@@H](CO)C(N)=O)C(C)C)[C@@H](C)CC
Regarding B5, the “hGIPR cAMP Rel EC50” value in assay [1] amounted to 0.0125 nM. Also, the “hGLP1R cAMP Rel EC50” value in the assay with human GLP-1 receptor was above 5000 nM. In the assay with human glucagon receptor, the “hGcgR cAMP Rel EC50” value amounted to 3000 nM.
